We go through 19 sequences from a protein production outcome set (Wang et al. 2014).

This data set can be described thus: label from the status in PepcDB records.

“MTLTLLLLIFILISFISALTIIFITVKKGIFFNRLYLQSIIVCILFFTNWILYLSTFYALLPEKISEFLFLPIWFFLCILSFITFWREWRNNRVFSICIGFLSFISFLFVLFLLVLSGM”: the protein production result is on record as “failed”.
Regarding “MTLVTALIVLLVVLGVFFTLVAAVGVLRLPDVYTRSHAATKADTLGAGFAIAAVGLYFGTAGELVRAGLLLVFIYVTNPTAAHAITRAAYSQDVDVWTVDDNDTGTDTASAADGGDSQ”, the protein production result is on record as “failed”.
Turning to “MTMDGDSSTTDASQLGISADYIGGSHYVIQPHDDTEDSMNDHEDTNGSKESFREQDIYLPIANVARIMKNAIPQTGKIAKDAKECVQECVSEFISFITSEASERCHQEKRKTINGEDILFAMSTLGFDSYVEPLKLYLQKFREAMKGEKGIGGAVSATDGLSEELTEEAFTNQLPAGLITADGQQQNVMVYTTSYQQISGVQQIQFS”, the protein production entry was “failed”.
The value for “MTMEPRVLRREEWDSWYGSLIRAFGGVPEPAEELELFRELTRVDRSIGVWERDGEAEACVGTTGSFDFRMTVPGGAQVRAAGVTMVSVAATHRRRGVLTSMMRRQLDDVRAWGEPLAVLTASEPAIYGRFGYGAATFSLSAEIDTSRVRLSVPAGTDDVRLRYAAPADVLDACEAVYARLVPGRPGMLARRPGWERLALLDPESGRDGASPLQCVVARRGGEVTGFARFRVRPAWGPEGAGGTVVLDDLAGLDPATEAALWRFLYDVDLTSRLAVRGRPVDEAWQYQVSDIRRCRPESRDALYVRLVDVGAALAARTYQAPVDVVFEVEDAFCPWNAGRWRLSGDAKGASCERTSDGADLALSVRELGAAYLGGVRLSSLGAAGRVREVRAGALAEASVGFGSDVAPWLPHGF” was “failed”; that for “MTMKETFTLVATAAAGLEAVVGRELRELGYETQVENGKVRFQGDVRAIAETNLWLRAADRIKIVVGEFPARTFEELFQGVFALDWENYLPLGAKFPISKAKCVKSKLRNEPSVQAISKKAVVKKLQKYFHRPEGVPLQETGAEFKIEVSILKDKATVLIDTTGASLFKRGYRTDKGGAPIKENMAAAILELSNWYPDKPLIDPTCGSGTFCIEAAMIGMNIAPGFNRDFAFEAWNWVGKDLVQSVRDEADSKANYDVALDIMGCDIDSRMVEIAKANAREAGLEDVVKFKQMRLQDLKTDKINGVIISNPPYGERLLDDKAVDILYNEMGQTFAPLKTWSKFILTSDEQFESKYGMKADKKRKLYNGTLRVDLYQYFGERVRRSEARKVN” was “failed”; that for “MTMPIFNISDDVDLVPAMPAEGRDGGSYRRQIWQDDVENGTIVAVWMAEPGIYNYAGRDLEETFVVVEGEALYSQADADPVKIGPGSIVSIAKGVPSRLEILSSFRKLATVIPKP” was “not failed”.
The value for “MTMRRVKGGLVQAVRVARGGAVAWLSLCMLMVGGQALAQQAITAPASNAVERVEQASTGESTVVTVTLKDTPAQKPVEFSTQQPARIAIDFFGTAFAQGRANYQYGGKLLRAASVVQIGDRTRVVLDLARQSQYKSEIRGNQYVLTLGAAPTASATPVPTFAAPAPTAGVERPSVRNIDFRRGEELAGRVVVDLSTSNSAINIAQQGQNLVVDFAGATLPQSLRRRFDVSDFGTPVQAMRATDNGTGARLVIEPRGNWQYSSYQTDTQFVVEVRPTKEDPNKLISGPGYRGERMSLNFQNIDIRSLLQVFADFTNLNIVTSDSVTGTLSLRLKDVPWDQALQIVLDSKGLASRRNGNVLWVAPRNELATKEKAELESQQQVTELEPLRSQVFRLNYQRADDVRNMLLGTGGTAGGGAAASRILSKRGSLTSDARTNQLFVSDIPSKLEEVQAFLLKIDIPVRQVMIEARIVEADDTFSRNLGAKLGFAAKTNGAGYGNTYSNVVSPVTKDATWDNSAAVSLPANGINGVNAASVAVSLFNAGAGRFLALELSALEADGRGKIISSPRVVTADNIKALIEQGTEVPYQQATSSGATSVSFKKANLKLEVTPKITPDGNVFLDVDVNKDSLGTQTTNGFAINTKHVQTQVLVENGGTVVIGGIYTQNERTDVNKVPLLGDIPVLGNLFKSTAKTNDRTELLVFLTPRVLSDQLSLK” was “failed”; that for “MTMTLSAKDLENISKLAYLNEDSEHSAKLTQEVSAIMDFVDQLKTIDTSQIAPLFHPLALNQRLRPDEVTEAECLAELEAMAPLFEDNLYLVPKVISSDK” was “failed”.
With “MTMTRTPLTQAAATLKARFREIGYTTSGINNVLGPDFVAAMHAGQPAAVRFHLDSLPESDLNLALRAFVLRDQVRVEKLAALLGEALKTLVDASLVEISGEYAQFLIDIRPHLIAGRQQWVFSDADASMTQHVPGPDHVLGVGAASLSLLQATPTSPTGSVLDLGTGSGIQVLGQAGAAQEIIATDVHPRALDFAEATLVDSGIPTQLVEGSWFEPVRGRTFDRIIANPPFVVGPPEIGHVYRDSGMDLDGATALVVKEACAHLNPGGTAHLLGAWVHSADQSWQQRVAEWLPDNGYVAWVIERDAVSPAQYVGTWLSDESLDLRSPEAAARTTAWLNHFEKAKVQGVGFGFIAIQRLEEDEADEKSDILAESMTQYFEDPLGPEIEEYFTRTAWLREQTRDSILSSRFKVRPGVAREQISLADAEEGMGFSPVTLRLTRTDGPRWSHDVDEHVASIVAGLNPHGLPFEEILEMYAMAQGIEGESLHNGAIAALVDLIRHGLVLPADLLDS” the entry was “failed”.
As for “MTNAGTTDLSWLPSDADEQLALGFKIVTNAYKTRVTSQEAEIRSLKGQLTEKQEQLSSIQKKYSNLEVQLIESTQRGNQLADENKQLITTIKKLNRDIDRLENLKKAVLNSIQEEHDVEDAHKYYSADDLLQTTAPRTMLEMNGNEDSCQSIINKIVNSDTHNIINGSFNSPYIGNVPLGEKNTDGRAFFRNARSRLSYEQFNQFLSNIKKLNNHQQKREETLKKAQAIFGEANLDLYEEFKVLISKHS”, the protein production entry is reported as “failed”.
The value for “MTNAIQDRLPRTTNSVEDTMALGARIAQGLSPGAVVALYGDLGTGKTHFVKGVAQGLGLPPAEVRSPTFTILAVHDDGDRPLYHFDAYRVQTPDEFVELGFETYVHGDGLTCIEWAGRVADLLPADTVPLQFHHVAPSTRRITLGAPLEHHHHHH” was “not failed”; that for “MTNDDSLKTYRAKRDFSVTPEPSGVASGKTAIKSTAKVLSFVVQKHWATRLHYDFRLELEGTMKSWAVPKGPSFDPNDKRMAVHVEDHPISYNSFEGEIPSGQYGAGKVIIWDKGTWIPLEDPHKGYRDGKLKFELRGLKLKGHWALVRMRKEENKKQEPWLLIKEKDEYVRSSREYSVVDEMPDSVAELDVPDVPQPSKASATSGSSSPKSSSIFRKGTKTTLPDNARKAELPRTLTPELATLVDEPPVDPEEWIYEIKFDGYRMLSRIEGGEVRLITRNGNDWSHKLPHLIKALGKLKLKSSWLDGEIAVLDENGIPDFQSLQNAFDSAHTESIIYYLFDVPFYEGYDLRDASLVERRALLQKLFEAHAPDEIRFSDVFDVSPAEILDSACRLGLEGVIGKRKTSVYVSRRSQDWIKLKCKNRQEFVIGGYTDPKGTRKGIGSLLLGYYDEDRKLRYAGNVGAGFSDKTLEDLRARLDRIALTDSPFVKANGLDKNAHWVEPRLIAEVSFGEWTRGGHIRHSVFHGLRSDKKADVIVREKPVHPAAKSAPASAIPKSLKVTNPDRVIDPSTGFTKVDLIRYYALVAPLMLPHLARRPVSLVRAPEGVSGELFFQKHWEKENMPGIEQLDPSLDPDHPPLLEVSTAEGLLSAVQMNVIEFHTWNATKNVIGKPDRIAFDLDPGSGVEWALIQESAQLVNVFLRELGLKSFLKTSGGKGLHIVVPIRRLRDWDTVKGFSQAIVQHLAKTIPTRFTAKSGPRNRVGKIFIDYLRNGFGATTVSAWSVRARPGLGVSVPLAWEELSSLKSSTRWSASNIHERLDKGNDPWADYAETNQSIVPAMKKLGFTPSSKA” was “failed”; that for “MTNIQKRFYKGRVALNVLANNIENAKDIFEAAEGYVVVGVLSKDYPTVEEAVTAMKAYGKEIDDAVSIGLGAGDNRQAAVVAEIAKHYSGSHINQVFPSVGATRANLGGKDSWINSLVSPTGKVGYVNISTGPISAAGEEKAIVPIKTAIALVRDMGGNSLKYFPMKGLAHEEEYRAVAKACAEEGFALEPTGGIDKENFETILRIALEANVEQVIPHVYSSIIDKETGNTKTEDVRELLAVVKKLVDQYA” was “not failed”.
As to “MTNKYIKLCFIDLVDLKKMSKQNLKIVLFHGFMAREHMQRHWLCYLKKLGYSDIHLYGHLSSAEMLAKQIHSTQNSAQKLVLFGYSQGGFQAVKVAQAFEQLQLPVDLLITIAAGGKGRLLPKQWHYNPRHIPQNVVKSLNFFSLSDSLGTDRCYRDNLIQASHHDQCIENIIFDQSAQVGHIELSRCYSKQRIHGLVKQHLISRIEYELSILE”, the protein production entry is “failed”.
The value for “MTNLLVIGATGNIGQPLIRDLQDDPDVHLFAGVHNSEHAKQALNGLKVQVRRFDFLDPATFEQALADIDKVFFVRPPQLAKPKEDMYPFLDALVARHVKQVVFVSLLGVAHNPMTPHHQIEKRIVELGLPYTFIRPSFFMQNLNTTHQADIVGHRDLFVPAGHARTSFIDTRDIGATAAVILRDPAYIGQKLDITGAQALTYADAAQIMTMELGVPITYSKPSLWRFRKVMLQRGLPKNYVNVMVMLYLITQLGNAKTVTTTLPNVLGRPAISFEQYVHDYRAEFLPKPLSLEHHHHHH” was “failed”; that for “MTNNTDIKNQTNPMSGDLLRQIIRLGFPVAIQSALVAILALADVLMVSDFGKEATAAVGIASKWHFVAIMIMAGLASANGTLVAQYWGRNDAVSAKTVTGIAIRFGLKVLIPVTLIITLGSELIMRLQTSDTRVIELGATYLWYAFPVLLLTHIVIVLEASMRSSGDTVTPLLMGAMTIVLNIGLNFWLIKGGFGIPAMGVAGAAFATTISRLFQVLAMIAYMRWRKHWLLEVKEGSERPSLWLSYRRLALPMTLGALLWAIGTMVYQMIFGHMGTTELAVFSMLGPFESLCYSIFFGISVACSVMIGQSLGRDAFEQAEHMAKFFIKAVFVFGISIGALLLLNRELIIAALNLDNPELYPLAAPAVMILCCAIWLRMLNMIIINGIIRAGGDNVFCLRMDFIAMWMTGLPLCAIAAFVLGWEFKYVYALMIAEEVVKLALCYRRYTQKYWIKNLTVVTTS” was “not failed”.
For the sequence “MTNPLNSTAANRSNQPSSDGISDGQITNEEAESLINKKNCSGHKLKEVTDSDTFSDNGKDDSDTKKRFHYHQDQRRMSLTSIVAVESPSSSNAPSRKTIDLGHGSDLIYIQRFLPFQQSWTFFDYLDKHIPWTRPTIRVFGRSCLQPRDTCYVASSGLTALVYSGYRPTSYSWDDFPPLKEILDAIYKVLPGSRFNSLLLNRYKGASDYVAWHADDEKIYGPTPEIASVSFGCERDFVLKKKKDEESSQARNKPTFVWCEPAGKTGDSGPAKKRLKRSSREDQQSLTLKHGSLLVMRGYTQRDWIHSVPKRAKAEGTRINLTFRLVL”, the protein production entry is “not failed”.
The value for “MTNQDNNHQLNHRIYHFEKIYKAIKHVIVFIFMIFIAIVAIAVIAMSLYFHHLTKTSDSLSDDALIKKVRQIPGDELLDHNNKNLLYEYNHSQNSLIIGPKTSSPNVIKALTSSEDTLFYKHDGILPKAILRAMIQDIFNTDQSSGGSTITQQLVKNQVLTNEKTYSRKANELRLAIRLEHLLSKDEIIYTYLNIVPFGRDYNGANISGIASASYSLFGIPPKDLSIAQSAYLIGLLQSPYGYTPYEKDGTLKSDKDLKYSIQRQHYVLKRMLIEDQITEKEYNDALKYDIKSHLLNRKKR” was “failed”; that for “MTNQSHDDDDDDEQLPRSLFRLVSLPQKTMTNQTHDDDDDDEQLPLSLTLGSTSYSSQIRPVKSPVPIAPPPEFPGPVTTWPTPADFLATRSMVPDPPPPSHQIPLWMSNYFQQTPNPPQLVTHFFPPSGLAPPSSNLTPPPVKRPVTGSVRIYRSRSTVSKKSDTISPPFPWATNRRGEIQSLEYLESNQITTITGEVQCRHCEKVYQVSYNLRERFAEVVKFYLTEKRKMRDRAHKDWAYPEQRRCELCGREKAVKPVIAERKSQINWLFLLLGQTLGFCTLEQLKNFCKHSKNHRTGAKDRVLYLTYMGLCKMLQPKSDLFTCVAGKR” was “failed”.
